B1: COX4I1 (parent)
chain: FDKEWVAKQTKRMLDMKVNPIQGL

Variants of: B1
Assay: protein stability index of a GFP-peptide fusion (GPS, HEK-293T) (PSI 1-6); higher = more stable
Conditions: c terminus: a fixed tail appended
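Note: lentivirally expressed fusions sorted by FACS into six bins by GFP to DsRed ratio, PSI derived from sequencing read proportions per bin multiplied by bin number.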

Row | Variant | protein stability index
1 | FNKEWVAKQTKRMLDMKVNPIQGL | 2.57
2 | FPKEWVAKQTKRMLDMKVNPIQGL | 2.51
3 | FRKEWVAKQTKRMLDMKVNPIQGL | 1.27
4 | FTKEWVAKQTKRMLDMKVNPIQGL | 1.35
5 | FVKEWVAKQTKRMLDMKVNPIQGL | 1.26
6 | FWKEWVAKQTKRMLDMKVNPIQGL | 1.52
7 | FYKEWVAKQTKRMLDMKVNPIQGL | 1.76
8 | FDAEWVAKQTKRMLDMKVNPIQGL | 2.17
9 | FDCEWVAKQTKRMLDMKVNPIQGL | 2.12
10 | FDDEWVAKQTKRMLDMKVNPIQGL | 2.57
11 | FDEEWVAKQTKRMLDMKVNPIQGL | 2.83
12 | FDFEWVAKQTKRMLDMKVNPIQGL | 1.87
13 | FDGEWVAKQTKRMLDMKVNPIQGL | 1.91
14 | FDHEWVAKQTKRMLDMKVNPIQGL | 1.52
15 | FDLEWVAKQTKRMLDMKVNPIQGL | 2.06
16 | FDMEWVAKQTKRMLDMKVNPIQGL | 1.64
17 | FDNEWVAKQTKRMLDMKVNPIQGL | 2.06
18 | FDPEWVAKQTKRMLDMKVNPIQGL | 1.75
19 | FDQEWVAKQTKRMLDMKVNPIQGL | 2.85
20 | FDREWVAKQTKRMLDMKVNPIQGL | 1.66
21 | FDSEWVAKQTKRMLDMKVNPIQGL | 2.19
22 | FDTEWVAKQTKRMLDMKVNPIQGL | 2.1
23 | FDVEWVAKQTKRMLDMKVNPIQGL | 1.68
24 | FDWEWVAKQTKRMLDMKVNPIQGL | 1.29

Row | Variant | protein stability index
25 | FDYEWVAKQTKRMLDMKVNPIQGL | 2.13
26 | FDKAWVAKQTKRMLDMKVNPIQGL | 2.41
27 | FDKCWVAKQTKRMLDMKVNPIQGL | 1.62
28 | FDKDWVAKQTKRMLDMKVNPIQGL | 1.9
29 | FDKFWVAKQTKRMLDMKVNPIQGL | 1.63
30 | FDKGWVAKQTKRMLDMKVNPIQGL | 1.43
31 | FDKHWVAKQTKRMLDMKVNPIQGL | 2.35
32 | FDKIWVAKQTKRMLDMKVNPIQGL | 1.47
33 | FDKKWVAKQTKRMLDMKVNPIQGL | 1.82
34 | FDKLWVAKQTKRMLDMKVNPIQGL | 1.88
35 | FDKMWVAKQTKRMLDMKVNPIQGL | 1.26
36 | FDKNWVAKQTKRMLDMKVNPIQGL | 1.69
37 | FDKPWVAKQTKRMLDMKVNPIQGL | 1.66
38 | FDKQWVAKQTKRMLDMKVNPIQGL | 1.53
39 | FDKRWVAKQTKRMLDMKVNPIQGL | 1.84
40 | FDKSWVAKQTKRMLDMKVNPIQGL | 1.43
41 | FDKTWVAKQTKRMLDMKVNPIQGL | 2.34
42 | FDKVWVAKQTKRMLDMKVNPIQGL | 2.42
43 | FDKWWVAKQTKRMLDMKVNPIQGL | 1.66
44 | FDKYWVAKQTKRMLDMKVNPIQGL | 1.89
45 | FDKEAVAKQTKRMLDMKVNPIQGL | 3.96
46 | FDKECVAKQTKRMLDMKVNPIQGL | 3.78
47 | FDKEDVAKQTKRMLDMKVNPIQGL | 4.22
48 | FDKEEVAKQTKRMLDMKVNPIQGL | 3.6

Row | Variant | protein stability index
49 | FDKEFVAKQTKRMLDMKVNPIQGL | 2.8
50 | FDKEGVAKQTKRMLDMKVNPIQGL | 3.92
51 | FDKEHVAKQTKRMLDMKVNPIQGL | 2.84
52 | FDKEIVAKQTKRMLDMKVNPIQGL | 3.44
53 | FDKEKVAKQTKRMLDMKVNPIQGL | 3.54
54 | FDKELVAKQTKRMLDMKVNPIQGL | 3
55 | FDKEMVAKQTKRMLDMKVNPIQGL | 3.52
56 | FDKENVAKQTKRMLDMKVNPIQGL | 3.86
57 | FDKEPVAKQTKRMLDMKVNPIQGL | 3.63
58 | FDKEQVAKQTKRMLDMKVNPIQGL | 3.85
59 | FDKERVAKQTKRMLDMKVNPIQGL | 3.98
60 | FDKESVAKQTKRMLDMKVNPIQGL | 3.61
61 | FDKETVAKQTKRMLDMKVNPIQGL | 2.87
62 | FDKEVVAKQTKRMLDMKVNPIQGL | 4.17
63 | FDKEYVAKQTKRMLDMKVNPIQGL | 3.22
64 | FDKEWAAKQTKRMLDMKVNPIQGL | 3.39
65 | FDKEWCAKQTKRMLDMKVNPIQGL | 1.53
66 | FDKEWDAKQTKRMLDMKVNPIQGL | 2.78
67 | FDKEWEAKQTKRMLDMKVNPIQGL | 3.33
68 | FDKEWFAKQTKRMLDMKVNPIQGL | 1.55
69 | FDKEWGAKQTKRMLDMKVNPIQGL | 2.31
70 | FDKEWHAKQTKRMLDMKVNPIQGL | 2.06
71 | FDKEWIAKQTKRMLDMKVNPIQGL | 1.35
72 | FDKEWKAKQTKRMLDMKVNPIQGL | 2.28

Row | Variant | protein stability index
73 | FDKEWLAKQTKRMLDMKVNPIQGL | 2.37
74 | FDKEWMAKQTKRMLDMKVNPIQGL | 1.93
75 | FDKEWNAKQTKRMLDMKVNPIQGL | 1.79
76 | FDKEWPAKQTKRMLDMKVNPIQGL | 1.86
77 | FDKEWQAKQTKRMLDMKVNPIQGL | 2.83
78 | FDKEWRAKQTKRMLDMKVNPIQGL | 2.1
79 | FDKEWSAKQTKRMLDMKVNPIQGL | 1.96
80 | FDKEWTAKQTKRMLDMKVNPIQGL | 1.93
81 | FDKEWWAKQTKRMLDMKVNPIQGL | 2.67
82 | FDKEWYAKQTKRMLDMKVNPIQGL | 1.6
83 | FDKEWVCKQTKRMLDMKVNPIQGL | 1.27
84 | FDKEWVDKQTKRMLDMKVNPIQGL | 2.32
85 | FDKEWVEKQTKRMLDMKVNPIQGL | 1.77
86 | FDKEWVFKQTKRMLDMKVNPIQGL | 1.56
87 | FDKEWVGKQTKRMLDMKVNPIQGL | 2.28
88 | FDKEWVHKQTKRMLDMKVNPIQGL | 1.74
89 | FDKEWVIKQTKRMLDMKVNPIQGL | 1.68
90 | FDKEWVKKQTKRMLDMKVNPIQGL | 2.29
91 | FDKEWVLKQTKRMLDMKVNPIQGL | 1.56
92 | FDKEWVMKQTKRMLDMKVNPIQGL | 1.81
93 | FDKEWVNKQTKRMLDMKVNPIQGL | 1.65
94 | FDKEWVPKQTKRMLDMKVNPIQGL | 2.05

— the supplement of paper PMC10567573
